# Results reported in US20140087995A1 (published 2014).
# Numbered stars: 1 amine (or outer) side, 2 acyl side, 3 side chain; on linkers, the order of the positions; unused ones are H or OH. Bridge positions count the residues as written; N and C are the ends. Side chains are listed from the residue outwards. Ends that are not written are not given here. * marks the point of attachment. C20 diacid = O=C(O)CCCCCCCCCCCCCCCCCCC(=O)*; γGlu = O=C(O)[C@H](CCC(=O)[*:2])N[*:1]
# B1: N^ε1-[(4S)-4-carboxy-4-(19-carboxynonadecanoylamino)butanoyl]-[Ala14,Arg17,Pro21,Pro27,His34]-h-amylin (peptide)
# peptide: K([γGlu-C20 diacid])CNTATCATQRLAAFLRHSSPNFGAIPSSTNVGHNTY-NH2
# modifications: disulfide 2-7; N-terminus assumed
# SMILES: CC[C@H](C)[C@H](NC(=O)[C@H](C)NC(=O)CNC(=O)[C@H](Cc1ccccc1)NC(=O)[C@H](CC(N)=O)NC(=O)[C@@H]1CCCN1C(=O)[C@H](CO)NC(=O)[C@H](CO)NC(=O)[C@H](Cc1c[nH]cn1)NC(=O)[C@H](CCCNC(=N)N)NC(=O)[C@H](CC(C)C)NC(=O)[C@H](Cc1ccccc1)NC(=O)[C@H](C)NC(=O)[C@H](C)NC(=O)[C@H](CC(C)C)NC(=O)[C@H](CCCNC(=N)N)NC(=O)[C@H](CCC(N)=O)NC(=O)[C@@H](NC(=O)[C@H](C)NC(=O)[C@@H]1CSSC[C@H](NC(=O)[C@@H](N)CCCCNC(=O)CC[C@H](NC(=O)CCCCCCCCCCCCCCCCCCC(=O)O)C(=O)O)C(=O)N[C@@H](CC(N)=O)C(=O)N[C@@H]([C@@H](C)O)C(=O)N[C@@H](C)C(=O)N[C@@H]([C@@H](C)O)C(=O)N1)[C@@H](C)O)C(=O)N1CCC[C@H]1C(=O)N[C@@H](CO)C(=O)N[C@@H](CO)C(=O)N[C@H](C(=O)N[C@@H](CC(N)=O)C(=O)N[C@H](C(=O)NCC(=O)N[C@@H](Cc1c[nH]cn1)C(=O)N[C@@H](CC(N)=O)C(=O)N[C@H](C(=O)N[C@@H](Cc1ccc(O)cc1)C(N)=O)[C@@H](C)O)C(C)C)[C@@H](C)O
# notes: also called compound 93
# B2: N^ε1-[(4S)-4-carboxy-4-[[(4S)-4-carboxy-4-(19-carboxynonadecanoylamino)butanoyl]amino]butanoyl]-[Arg17,Pro21,Pro27,Pro31,Pro34,Arg35]-h-amylin (peptide)
# peptide: K([γGlu-γGlu-C20 diacid])CNTATCATQRLANFLRHSSPNFGAIPSSTPVGPRTY-NH2
# modifications: disulfide 2-7; N-terminus assumed
# SMILES: CC[C@H](C)[C@H](NC(=O)[C@H](C)NC(=O)CNC(=O)[C@H](Cc1ccccc1)NC(=O)[C@H](CC(N)=O)NC(=O)[C@@H]1CCCN1C(=O)[C@H](CO)NC(=O)[C@H](CO)NC(=O)[C@H](Cc1c[nH]cn1)NC(=O)[C@H](CCCNC(=N)N)NC(=O)[C@H](CC(C)C)NC(=O)[C@H](Cc1ccccc1)NC(=O)[C@H](CC(N)=O)NC(=O)[C@H](C)NC(=O)[C@H](CC(C)C)NC(=O)[C@H](CCCNC(=N)N)NC(=O)[C@H](CCC(N)=O)NC(=O)[C@@H](NC(=O)[C@H](C)NC(=O)[C@@H]1CSSC[C@H](NC(=O)[C@@H](N)CCCCNC(=O)CC[C@H](NC(=O)CC[C@H](NC(=O)CCCCCCCCCCCCCCCCCCC(=O)O)C(=O)O)C(=O)O)C(=O)N[C@@H](CC(N)=O)C(=O)N[C@@H]([C@@H](C)O)C(=O)N[C@@H](C)C(=O)N[C@@H]([C@@H](C)O)C(=O)N1)[C@@H](C)O)C(=O)N1CCC[C@H]1C(=O)N[C@@H](CO)C(=O)N[C@@H](CO)C(=O)N[C@H](C(=O)N1CCC[C@H]1C(=O)N[C@H](C(=O)NCC(=O)N1CCC[C@H]1C(=O)N[C@@H](CCCNC(=N)N)C(=O)N[C@H](C(=O)N[C@@H](Cc1ccc(O)cc1)C(N)=O)[C@@H](C)O)C(C)C)[C@@H](C)O
# B3: N^ε1-[(4S)-4-carboxy-4-(19-carboxynonadecanoylamino)butanoyl]-[Glu14,Arg17,Pro21,Pro27,His35]-h-amylin (peptide)
# peptide: K([γGlu-C20 diacid])CNTATCATQRLAEFLRHSSPNFGAIPSSTNVGSHTY-NH2
# modifications: disulfide 2-7; N-terminus assumed
# SMILES: CC[C@H](C)[C@H](NC(=O)[C@H](C)NC(=O)CNC(=O)[C@H](Cc1ccccc1)NC(=O)[C@H](CC(N)=O)NC(=O)[C@@H]1CCCN1C(=O)[C@H](CO)NC(=O)[C@H](CO)NC(=O)[C@H](Cc1c[nH]cn1)NC(=O)[C@H](CCCNC(=N)N)NC(=O)[C@H](CC(C)C)NC(=O)[C@H](Cc1ccccc1)NC(=O)[C@H](CCC(=O)O)NC(=O)[C@H](C)NC(=O)[C@H](CC(C)C)NC(=O)[C@H](CCCNC(=N)N)NC(=O)[C@H](CCC(N)=O)NC(=O)[C@@H](NC(=O)[C@H](C)NC(=O)[C@@H]1CSSC[C@H](NC(=O)[C@@H](N)CCCCNC(=O)CC[C@H](NC(=O)CCCCCCCCCCCCCCCCCCC(=O)O)C(=O)O)C(=O)N[C@@H](CC(N)=O)C(=O)N[C@@H]([C@@H](C)O)C(=O)N[C@@H](C)C(=O)N[C@@H]([C@@H](C)O)C(=O)N1)[C@@H](C)O)C(=O)N1CCC[C@H]1C(=O)N[C@@H](CO)C(=O)N[C@@H](CO)C(=O)N[C@H](C(=O)N[C@@H](CC(N)=O)C(=O)N[C@H](C(=O)NCC(=O)N[C@@H](CO)C(=O)N[C@@H](Cc1c[nH]cn1)C(=O)N[C@H](C(=O)N[C@@H](Cc1ccc(O)cc1)C(N)=O)[C@@H](C)O)C(C)C)[C@@H](C)O
# B4: N^ε1-[(4S)-4-carboxy-4-[[(4S)-4-carboxy-4-(19-carboxynonadecanoylamino)butanoyl]amino]butanoyl]-[Glu14,Arg17,Pro21,Pro27,His34,Glu35]-h-amylin (peptide)
# peptide: K([γGlu-γGlu-C20 diacid])CNTATCATQRLAEFLRHSSPNFGAIPSSTNVGHETY-NH2
# modifications: disulfide 2-7; N-terminus assumed
# SMILES: CC[C@H](C)[C@H](NC(=O)[C@H](C)NC(=O)CNC(=O)[C@H](Cc1ccccc1)NC(=O)[C@H](CC(N)=O)NC(=O)[C@@H]1CCCN1C(=O)[C@H](CO)NC(=O)[C@H](CO)NC(=O)[C@H](Cc1c[nH]cn1)NC(=O)[C@H](CCCNC(=N)N)NC(=O)[C@H](CC(C)C)NC(=O)[C@H](Cc1ccccc1)NC(=O)[C@H](CCC(=O)O)NC(=O)[C@H](C)NC(=O)[C@H](CC(C)C)NC(=O)[C@H](CCCNC(=N)N)NC(=O)[C@H](CCC(N)=O)NC(=O)[C@@H](NC(=O)[C@H](C)NC(=O)[C@@H]1CSSC[C@H](NC(=O)[C@@H](N)CCCCNC(=O)CC[C@H](NC(=O)CC[C@H](NC(=O)CCCCCCCCCCCCCCCCCCC(=O)O)C(=O)O)C(=O)O)C(=O)N[C@@H](CC(N)=O)C(=O)N[C@@H]([C@@H](C)O)C(=O)N[C@@H](C)C(=O)N[C@@H]([C@@H](C)O)C(=O)N1)[C@@H](C)O)C(=O)N1CCC[C@H]1C(=O)N[C@@H](CO)C(=O)N[C@@H](CO)C(=O)N[C@H](C(=O)N[C@@H](CC(N)=O)C(=O)N[C@H](C(=O)NCC(=O)N[C@@H](Cc1c[nH]cn1)C(=O)N[C@@H](CCC(=O)O)C(=O)N[C@H](C(=O)N[C@@H](Cc1ccc(O)cc1)C(N)=O)[C@@H](C)O)C(C)C)[C@@H](C)O
# B5: N^ε1-[(4S)-4-carboxy-4-(19-carboxynonadecanoylamino)butanoyl]-[Asp14,Arg17,Pro21,Pro27,Pro34,Glu35]-h-amylin (peptide)
# peptide: K([γGlu-C20 diacid])CNTATCATQRLADFLRHSSPNFGAIPSSTNVGPETY-NH2
# modifications: disulfide 2-7; N-terminus assumed
# SMILES: CC[C@H](C)[C@H](NC(=O)[C@H](C)NC(=O)CNC(=O)[C@H](Cc1ccccc1)NC(=O)[C@H](CC(N)=O)NC(=O)[C@@H]1CCCN1C(=O)[C@H](CO)NC(=O)[C@H](CO)NC(=O)[C@H](Cc1c[nH]cn1)NC(=O)[C@H](CCCNC(=N)N)NC(=O)[C@H](CC(C)C)NC(=O)[C@H](Cc1ccccc1)NC(=O)[C@H](CC(=O)O)NC(=O)[C@H](C)NC(=O)[C@H](CC(C)C)NC(=O)[C@H](CCCNC(=N)N)NC(=O)[C@H](CCC(N)=O)NC(=O)[C@@H](NC(=O)[C@H](C)NC(=O)[C@@H]1CSSC[C@H](NC(=O)[C@@H](N)CCCCNC(=O)CC[C@H](NC(=O)CCCCCCCCCCCCCCCCCCC(=O)O)C(=O)O)C(=O)N[C@@H](CC(N)=O)C(=O)N[C@@H]([C@@H](C)O)C(=O)N[C@@H](C)C(=O)N[C@@H]([C@@H](C)O)C(=O)N1)[C@@H](C)O)C(=O)N1CCC[C@H]1C(=O)N[C@@H](CO)C(=O)N[C@@H](CO)C(=O)N[C@H](C(=O)N[C@@H](CC(N)=O)C(=O)N[C@H](C(=O)NCC(=O)N1CCC[C@H]1C(=O)N[C@@H](CCC(=O)O)C(=O)N[C@H](C(=O)N[C@@H](Cc1ccc(O)cc1)C(N)=O)[C@@H](C)O)C(C)C)[C@@H](C)O
# B6: N^ε1-[(4S)-4-carboxy-4-(19-carboxynonadecanoylamino)butanoyl]-[Glu14,Arg17,Pro21,Pro27,His34,Glu35]-h-amylin (peptide)
# peptide: K([γGlu-C20 diacid])CNTATCATQRLAEFLRHSSPNFGAIPSSTNVGHETY-NH2
# modifications: disulfide 2-7; N-terminus assumed
# SMILES: CC[C@H](C)[C@H](NC(=O)[C@H](C)NC(=O)CNC(=O)[C@H](Cc1ccccc1)NC(=O)[C@H](CC(N)=O)NC(=O)[C@@H]1CCCN1C(=O)[C@H](CO)NC(=O)[C@H](CO)NC(=O)[C@H](Cc1c[nH]cn1)NC(=O)[C@H](CCCNC(=N)N)NC(=O)[C@H](CC(C)C)NC(=O)[C@H](Cc1ccccc1)NC(=O)[C@H](CCC(=O)O)NC(=O)[C@H](C)NC(=O)[C@H](CC(C)C)NC(=O)[C@H](CCCNC(=N)N)NC(=O)[C@H](CCC(N)=O)NC(=O)[C@@H](NC(=O)[C@H](C)NC(=O)[C@@H]1CSSC[C@H](NC(=O)[C@@H](N)CCCCNC(=O)CC[C@H](NC(=O)CCCCCCCCCCCCCCCCCCC(=O)O)C(=O)O)C(=O)N[C@@H](CC(N)=O)C(=O)N[C@@H]([C@@H](C)O)C(=O)N[C@@H](C)C(=O)N[C@@H]([C@@H](C)O)C(=O)N1)[C@@H](C)O)C(=O)N1CCC[C@H]1C(=O)N[C@@H](CO)C(=O)N[C@@H](CO)C(=O)N[C@H](C(=O)N[C@@H](CC(N)=O)C(=O)N[C@H](C(=O)NCC(=O)N[C@@H](Cc1c[nH]cn1)C(=O)N[C@@H](CCC(=O)O)C(=O)N[C@H](C(=O)N[C@@H](Cc1ccc(O)cc1)C(N)=O)[C@@H](C)O)C(C)C)[C@@H](C)O
# notes: also called compound 107
# Target: T1, human calcitonin receptor (human, UniProt P30988 25-474)
# T1 sequence (looked up): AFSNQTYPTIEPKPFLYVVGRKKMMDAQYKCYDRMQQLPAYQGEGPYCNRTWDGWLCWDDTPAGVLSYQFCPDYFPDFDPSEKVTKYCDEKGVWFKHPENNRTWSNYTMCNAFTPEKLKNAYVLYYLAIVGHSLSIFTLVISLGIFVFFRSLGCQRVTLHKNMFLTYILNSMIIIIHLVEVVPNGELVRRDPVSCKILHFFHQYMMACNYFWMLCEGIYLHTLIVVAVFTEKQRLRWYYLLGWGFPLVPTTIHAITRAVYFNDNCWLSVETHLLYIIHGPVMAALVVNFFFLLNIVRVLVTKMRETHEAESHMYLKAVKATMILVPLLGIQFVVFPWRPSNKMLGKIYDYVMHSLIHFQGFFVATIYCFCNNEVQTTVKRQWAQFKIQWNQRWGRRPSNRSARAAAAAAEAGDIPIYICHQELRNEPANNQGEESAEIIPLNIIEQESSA
# Experiment: cell-based or functional assay
row,Binder,hCTR funct. EC50 (pM)
1,B1,1140 pM
2,B2,8660 pM
3,K([γGlu-C20 diacid])CNTATCATQRLAEFLRHSSPNFGAIPSSTNVGPHTY-NH2 (disulfide 2-7),1450 pM
4,B3,5580 pM
5,K([γGlu-γGlu-C20 diacid])CNTATCATQRLADFLRHSSPNFGAIPSSTNVGPETY-NH2 (disulfide 2-7),843 pM
6,B4,7050 pM
7,B5,1120 pM
8,B6,2540 pM
